# In article PMC9305271:
# pKd: −log10 of the molar value.
# What was measured:
# [1] = target: intermediate horseshoe bat ACE2 (bACE2-Ra), peptide domain, residues 19-615 (Rhinolophus affinis (intermediate horseshoe bat)); assay: SPR
# [2] = target: bACE2-Ra-eGFP, full length, on BHK-21 cells (Rhinolophus affinis (intermediate horseshoe bat)); assay: flow cytometry on cells
# [3] = target: intermediate horseshoe bat ACE2 (bACE2-Ra), peptidase domain, residues 19-615 (Rhinolophus affinis (intermediate horseshoe bat)); assay: SPR
Substance,pKd [1],double-positive rate [2] [%],pKd [3]
SARS-CoV-2 receptor-binding domain (RBD) (from UniProt P0DTC2 319-541) (domain or fragment),6.35,31.6,–
"SARS-CoV-2 receptor-binding domain (prototype), residues 319-541 (from UniProt P0DTC2 319-541) (domain or fragment)",–,–,6.26
